According to patent publication US20040161776A1 (PSMA DEVELOPMENT, published 2004):

Key:
[1] = target: T1, prostate specific membrane antigen (PSMA), full-length human (human, UniProt Q04609 1-750); assay: cell-based or functional assay
[2] = target: T1, prostate specific membrane antigen …; assay: cell-based or functional assay; remark: listed apart in the source
[3] = target: T2, recombinant soluble PSMA (rsPSMA) (human, UniProt Q04609 44-750); assay: Biacore, purified mAb captured, rsPSMA in flow
T2 construct: Oligomeric state of the preparation not specified in the assay concerned; also called secreted rsPSMA; PSMAECTO
Procedure: (§1) To determine the kinetics and affinity of the antibodies, the antibodies in crude supernatants, in purified form and in bifunctional chelate modified forms were analyzed using a Biacore 3000 instrument (Biacore Inc., Piscataway, N.J.). Biacore 3000 is a fully automated surface plasmon resonance (SPR)-based biosensor system that is designed to provide real-time kinetic data from assay formats that require no tags or labeling of compounds for biomolecular interactions. It is ideal for screening crude supernatants.
(§2) The streptavidin-coated sensor chips (SA chips, Biacore) were used to capture biotinylated anti-human IgG antibody (Sigma, St. Louis, Mo.). The entire sensor chip surface was conditioned with five injections of conditioning solution (1 M NaCl, 50 mM NaOH) and equilibrated with PBS buffer containing 0.005% polysorbate 20. Two to three thousand resonance units (RU) of biotinylated anti-human IgG antibody (Sigma) were immobilized onto the SA chip followed by an injection of regeneration buffer (glycine-HCl, pH 2.2). […] For each antibody at one concentration, the chip was regenerated and equilibrated. […] Thermodynamic and kinetic rate constants of binding were calculated using the Biacore Evaluation software.

[4] = target: T2, recombinant soluble PSMA (rsPSMA); assay: Biacore, mAb captured on anti-human IgG, rsPSMA in flow; crude supernatant
Procedure: as §1, §2

T1 sequence (Q04609 whole entry): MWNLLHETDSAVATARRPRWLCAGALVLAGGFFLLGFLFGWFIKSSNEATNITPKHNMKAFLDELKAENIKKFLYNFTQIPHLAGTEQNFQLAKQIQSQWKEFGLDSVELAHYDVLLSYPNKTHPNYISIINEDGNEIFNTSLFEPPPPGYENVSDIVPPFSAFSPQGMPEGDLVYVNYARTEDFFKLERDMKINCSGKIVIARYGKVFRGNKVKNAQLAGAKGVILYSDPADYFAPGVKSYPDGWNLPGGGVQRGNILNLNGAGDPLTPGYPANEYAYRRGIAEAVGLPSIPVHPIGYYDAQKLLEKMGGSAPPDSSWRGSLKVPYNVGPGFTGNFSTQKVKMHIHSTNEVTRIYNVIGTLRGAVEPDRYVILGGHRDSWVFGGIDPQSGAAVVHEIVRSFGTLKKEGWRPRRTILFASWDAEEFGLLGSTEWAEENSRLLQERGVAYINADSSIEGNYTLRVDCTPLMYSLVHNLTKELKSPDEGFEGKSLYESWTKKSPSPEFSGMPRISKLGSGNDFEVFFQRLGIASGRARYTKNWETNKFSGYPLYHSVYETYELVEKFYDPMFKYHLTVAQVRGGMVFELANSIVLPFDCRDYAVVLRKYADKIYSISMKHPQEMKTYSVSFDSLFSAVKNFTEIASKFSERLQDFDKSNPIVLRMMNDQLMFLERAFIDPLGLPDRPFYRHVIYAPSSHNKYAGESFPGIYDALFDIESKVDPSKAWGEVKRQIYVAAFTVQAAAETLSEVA
T2 sequence (Q04609 44-750): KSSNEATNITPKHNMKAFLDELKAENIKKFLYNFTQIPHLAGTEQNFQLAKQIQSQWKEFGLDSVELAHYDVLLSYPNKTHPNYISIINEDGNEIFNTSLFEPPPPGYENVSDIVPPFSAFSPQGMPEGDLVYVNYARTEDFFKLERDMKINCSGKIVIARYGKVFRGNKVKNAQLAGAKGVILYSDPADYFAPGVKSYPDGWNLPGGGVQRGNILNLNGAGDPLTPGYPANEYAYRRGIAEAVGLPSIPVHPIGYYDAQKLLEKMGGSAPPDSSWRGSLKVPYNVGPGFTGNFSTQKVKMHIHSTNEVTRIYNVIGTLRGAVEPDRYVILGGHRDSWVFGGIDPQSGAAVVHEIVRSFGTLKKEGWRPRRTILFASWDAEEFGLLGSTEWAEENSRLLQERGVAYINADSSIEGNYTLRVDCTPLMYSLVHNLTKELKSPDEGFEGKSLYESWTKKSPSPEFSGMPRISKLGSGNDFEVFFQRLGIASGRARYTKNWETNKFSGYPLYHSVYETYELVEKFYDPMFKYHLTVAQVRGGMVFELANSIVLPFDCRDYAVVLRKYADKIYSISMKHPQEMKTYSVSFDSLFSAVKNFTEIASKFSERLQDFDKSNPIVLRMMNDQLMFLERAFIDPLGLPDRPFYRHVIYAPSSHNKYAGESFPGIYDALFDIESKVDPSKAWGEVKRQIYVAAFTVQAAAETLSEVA

B1: 006 (antibody, V domains shown)
VH: QVQLVESGGGVVQPGRSLRLSCAASGFAFSRYGMHWVRQAPGKGLEWVAVIWYDGSNKYYADSVKGRFTISRDNSKNTQYLQMNSLRAEDTAVYYCARGGDFLYYYYYGMDVWGQGTTVTVSS
VL: DIQMTQSPSSLSASVGDRVTITCRASQGISNYLAWYQQKTGKVPKFLIYEASTLQSGVPSRFSGGGSGTDFTLTISSLQPEDVATYYCQNYNSAPFTFGPGTKVDIK
PSMA+/PSMA- Ratio of tumor uptake, Mean [1]: 4.27

B2: 225Ac labeled mAb 026 (antibody, human IgG1, V domains shown)
VH: QVQLVESGGGVVQPGRSLRLSCAASGFTFSNYVMHWVRQAPGKGLEWVAIIWYDGSNKYYADSVKGRFTISRDNSKNTLYLQMNSLRAEDTAVYYCAGGYNWNYEYHYYGMDVWGQGTTVTVSS
VL: DIQMTQSPSSLSASVGDRVTITCRASQGITNYLAWFQQKPGKAPKSLIYAASSLQSGVPSKFSGSGSGTDFSLTISSLQPEDFATYYCQQYNSYPITFGQGTRLEIK
modifications: 225Ac chelated by bifunctional DOTA conjugated to the antibody, sites not stated
IC50, cell survival (Alamar Blue) of C4-2 and LNCaP cells [2]: < 1 nCi/mL | IC50, cell survival of C4-2 cells by 3H thymidine incorporation [2]: 0.12 nCi/mL | selectivity of killing, C4-2 vs PC3 [2]: > 50 fold

B3: 026 (antibody, V domains shown)
VH: B2 VH
VL: B2 VL
PSMA+/PSMA- Ratio of tumor uptake, Mean [1]: 5.55

B4: PSMA 10.3 (antibody, V domains shown)
VH: QEQLVESGGGVVQPGRSLRLSCAASGFTFSTYGMHWVRQAPGKGLEWVAVTWHDGSNKYYADSVKGRFTISRDNSKNTLYLQMNSLRAEDTAVYYCARGGVGATYYYYYGMDVWGQGTTVTVSS
VL: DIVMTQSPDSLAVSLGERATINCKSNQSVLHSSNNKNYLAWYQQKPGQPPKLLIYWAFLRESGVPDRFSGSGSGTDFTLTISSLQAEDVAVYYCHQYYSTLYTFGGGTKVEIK
notes: human antibody from XenoMouse
Kd [3]: 0.217 nM | koff [4]: 0.000363 s⁻¹
